Assay results taken from article PMC6763540 (2013).

Molecular target: T1, Tie2 (Homo sapiens, UniProt Q02763)
T1 chain: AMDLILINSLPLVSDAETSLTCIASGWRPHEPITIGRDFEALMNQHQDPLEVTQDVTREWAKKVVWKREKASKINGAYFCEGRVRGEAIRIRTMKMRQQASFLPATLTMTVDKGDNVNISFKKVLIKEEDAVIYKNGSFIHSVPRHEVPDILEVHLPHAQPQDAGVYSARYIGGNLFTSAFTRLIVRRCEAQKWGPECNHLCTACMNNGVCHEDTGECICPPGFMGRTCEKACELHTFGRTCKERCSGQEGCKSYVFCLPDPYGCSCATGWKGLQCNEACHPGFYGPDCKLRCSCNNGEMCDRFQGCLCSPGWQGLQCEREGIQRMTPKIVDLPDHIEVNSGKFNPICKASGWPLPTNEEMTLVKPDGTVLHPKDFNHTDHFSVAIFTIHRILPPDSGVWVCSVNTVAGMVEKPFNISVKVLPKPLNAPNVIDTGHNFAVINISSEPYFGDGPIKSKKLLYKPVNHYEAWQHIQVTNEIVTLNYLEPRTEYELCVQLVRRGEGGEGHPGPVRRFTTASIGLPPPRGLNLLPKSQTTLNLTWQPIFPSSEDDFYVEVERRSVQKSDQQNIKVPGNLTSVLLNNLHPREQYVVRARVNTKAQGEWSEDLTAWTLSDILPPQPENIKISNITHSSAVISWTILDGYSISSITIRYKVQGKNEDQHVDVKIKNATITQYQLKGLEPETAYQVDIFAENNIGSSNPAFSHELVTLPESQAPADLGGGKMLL
Assay: SPR (Biacore)

Row | Kd [pM] | Binder
1 | 3 | activated protein C (APC) (protein) chain 1: ANSFLEELRHSSLERECIEEICDFEEAKEIFQNVDDTLAFWSKHVDGDQCLVLPLEHPCASLCCGHGTCIDGIGSFSCDCRSGWEGRFCQREVSFLNCSLDNGGCTHYCLEEVGWRRCSCAPGYKLGDDLLQCHPAVKFPCGRPWKRMEKKRSHL chain 2: LIDGKMTRRGDSPWQVVLLDSKKKLACGAVLIHPSWVLTAAHCMDESKKLLVRLGEYDLRRWEKWELDLDIKEVFVHPNYSKSTTDNDIALLHLAQPATLSQTIVPICLPDSGLAERELNQAGQETLVTGWGYHSSREKEAKRNRTFVLNFIKIPVVPHNECSEVMSNMVSENMLCAGILGDRQDACEGDSGGPMVASFHGTWFLVGLVSWGEGCGLLHNYGVYTKVSRYLDWIHGHIRDKEAPQKSWAP
2 | 2 | Angiopoietin-1 (Ang1) (protein) HIGCSNQRRSPENSGRRYNRIQHGQCAYTFILPEHDGNCRESTTDQYNTNALQRDAPHVEPDFSSQKLQHLEHVMENYTQWLQKLENYIVENMKSEMAQIQQNAVQNHTATMLEIGTSLLSQTAEQTRKLTDVETQVLNQTSRLEIQLLENSLSTYKLEKQLLQQTNEILKIHEKNSLLEHKILEMEGKHKEELDTLKEEKENLQGLVTRQTYIIQELEKQLNRATTNNSVLQKQQLELMDTVHNLVNLCTKEGVLLKGGKREEEKPFRDCADVYQAGFNKSGIYTIYINNMPEPKKVFCNMDVNGGGWTVIQHREDGSLDFQRGWKEYKMGFGNPSGEYWLGNEFIFAITSQRQYMLRIELMDWEGNRAYSQYDRFHIGNEKQNYRLYLKGHTGTAGKQSSLILHGADFSTKDADNDNCMCKCALMLTGGWWFDACGPSNLNGMFYTAGQNHGKLNGIKWHYFKGPSYSLRSTTMMIRPLDF
3 | 32 | Angiopoietin-2 (Ang2) (protein) YNNFRKSMDSIGKKQYQVQHGSCSYTFLLPEMDNCRSSSSPYVSNAVQRDAPLEYDDSVQRLQVLENIMENNTQWLMKLENYIQDNMKKEMVEIQQNAVQNQTAVMIEIGTNLLNQTAEQTRKLTDVEAQVLNQTTRLELQLLEHSLSTNKLEKQILDQTSEINKLQDKNSFLEKKVLAMEDKHIIQLQSIKEEKDQLQVLVSKQNSIIEELEKKIVTATVNNSVLQKQQHDLMETVNNLLTMMSTSNSAKDPTVAKEEQISFRDCAEVFKSGHTTNGIYTLTFPNSTEEIKAYCDMEAGGGGWTIIQRREDGSVDFQRTWKEYKVGFGNPSGEYWLGNEFVSQLTNQQRYVLKIHLKDWEGNEAYSLYEHFYLSSEELNYRIHLKGLTGTAGKISSISQPGNDFSTKDGDNDKCICKCSQMLTGGWWFDACGPSNLNGMYYPQRQNTNKFNGIKWYYWKGSGYSLKATTMMIRPADF
